“Also recorded” adds a separate entry of the source.
Legend:
pS396/pS404 peptide = test: ELISA, pS396/pS404 peptide; assay type: binding; conditions: plate coated with peptide 2 μg/mL; C5.2 IgG 8 μg/mL–0.05 ng/mL, 1 h room temperature; 405 nm
Protocol: (§1) Immulon 4 HBX (extra high-binding) 96-well microtiter plates (Thermo Scientific) were coated with the same peptide used for crystallization diluted to 2 μg/mL in phosphate-buffered saline (PBS) and left overnight at 4 °C (Table 1). Plates were then washed three times in PBS-T (PBS containing 0.05% Tween-20) and blocked in 5% non-fat milk and 3% bovine serum albumin in PBS for 2 hours at room temperature. Plates were subsequently washed 3 times in PBS-T before C5.2 was serially diluted (8 μg/mL–0.05 ng/mL) in PBS and incubated for 1 hour at room temperature. Then, alkaline phosphatase-conjugated goat anti-mouse IgG (Southern Biotech) was diluted 1:2000 in PBS and incubated for 30 minutes at room temperature. Finally, bound IgG was analyzed by addition of p-nitrophenyl phosphate substrate (Thermo Scientific) and measurement at 405 nm on a VersaMax Microplate Reader.
(§2) In order to evaluate the ability of C5.2 to exclusively target the phosphorylated epitope, we performed an enzyme-linked immunosorbent assay (ELISA). The peptides used in the assay are the same peptides used for crystallization and diluted to a concentration of 2 μg/mL (Table 1). Binding curves were generated from ELISA data by maintaining plate-bound peptide concentrations and serially diluting C5.2 IgG (Fig. 1c).

[1] = test system: normal tau in the soluble tau fraction (S1) from healthy control subjects; test: Western and dot blot, healthy control brain; assay type: binding, human; conditions: C5.2 1 µg/mL overnight 4 °C, pool of 4 healthy control donors
Protocol: Mice were euthanized by cervical dislocation. Brains were quickly removed, weighed and divided sagittally down the midline to yield two hemispheres. One hemisphere was parted from the cerebellum and hindbrain, the forebrain containing cerebral cortex and hippocampus was snap-frozen on dry ice and stored at −80 °C until use for biochemical analysis. Frontal cortices from 4 AD donors (2 males and 2 females) and 4 non-demented healthy controls (HC, 2 males and 2 females) were obtained from Cambridge Bioscience (Cambridge, UK). The brain tissue samples were fresh-frozen and stored at −80 °C until used for biochemical analysis. All donors were of Caucasian race. Age of AD donors: 76–91 years. Age of the HC donors: 57–80 years. […]
Samples were boiled in 1 × LDS loading buffer and 100 mM DTT. […] Tau and pTau levels were assessed in the samples using 1 μg/mL C5.2 overnight at 4 °C. A secondary fluorophore conjugated IgG antibody was used (IRDye 680 Goat anti-mouse, LICOR biosciences) and the signal was quantified using Odyssey CLx and Image studio software (LI-COR biosciences).
1 μl sample of S1 and P3 isolated from 24 weeks old rTg4510 and non-transgenic littermate (non-tg) mice or from four pooled Alzheimer’s disease (AD) and healthy control (HC) brains was spotted on nitrocellulose membranes. […] Bound antibodies were detected using an enhanced chemiluminescence system (ECL PLUS kit; Perkin Elmer).

[2] = test system: normal tau in brain sections from healthy control subjects (prefrontal cortex); test: Immunohistochemistry, healthy control brain sections; assay type: binding, human; conditions: C5.2 at 0.1 to 1 μg/mL, overnight 4 °C, paraffin sections
Protocol: Paraffin sections of 4 μm thickness were prepared from blocks of PFA-fixed prefrontal cortex from AD donors and non-demented controls obtained from Tissue Solutions (Glasgow, UK). The sections were deparaffinised, rehydrated and subjected to antigen retrieval by boiling in 10 mM citrate buffer pH 6 for 5 min. Endogenous peroxidase was quenched for 10 min with 1% H2O2 in PBS. Sections were then incubated 20 min in blocking buffer followed by overnight incubation in a humidified chamber at 4 °C with primary antibody at 0.1 to 1 μg/mL in incubation buffer. Between each incubation step, the sections were washed 3 × 10 min in wash buffer. Subsequently, the sections were incubated at room temperature in the following solutions; 60 min with a biotinylated secondary Ab diluted 1:200 in wash buffer; 60 min in ABC; 20 min in DAB. Finally, the sections were counterstained with hematoxylin and coverslipped.

pS404 peptide = test: ELISA, pS404 peptide; assay type: binding; conditions: plate coated with peptide 2 μg/mL; C5.2 IgG 8 μg/mL–0.05 ng/mL, 1 h room temperature; 405 nm
Protocol: as §1, §2

pS396 peptide = test: ELISA, pS396 peptide; assay type: binding
Protocol: as §1, §2

[3] = test system: non-phosphorylated peptide; test: ELISA, non-phosphorylated peptide; assay type: binding; conditions: plate coated with peptide 2 μg/mL; C5.2 IgG 8 μg/mL–0.05 ng/mL, 1 h room temperature; 405 nm
Protocol: as §1, §2

B1: C5.2: novel mouse monoclonal antibody that targets the pS396 tau epitope region (antibody, V domains shown)
VH: QVQLQQSDAELVKPGASVKISCKASGYTFTDRTIHWVKQRPEQGLEWIGYIYPGDDSTKYNDMFKAKATLTADKSSNTAYMQLNSLTSDDSAVYFCARRGTMDYWGQGTSVTVSS
VL: DVQMIQSPSSLSASLGDIVTMTCQASQDTSINLNWFQQKPGKAPKLLIYGASNLEDGVPSRFSGSRYGTDFTLTISSLEDEDMATYFCLQHTYLPFTFGSGTKLEIK
Association with peptide (ELISA) (pS396/pS404 peptide): strong association | Detection of normal tau (S1) [1]: not detected | Binding to normal tau in brain sections [2]: does not bind to normal tau | Recognition of peptide (ELISA) (pS404 peptide): lack of recognition; also recorded: does not bind | Phospho-specificity (pS396 peptide; ELISA, vs pS404 and non-phosphorylated peptides): pS396 phosphorylation state-specific mAb | Association with peptide (ELISA) (pS396 peptide; plate coated with peptide 2 μg/mL, C5.2 IgG 8 μg/mL–0.05 ng/mL, 1 h room temperature, 405 nm): strong association | Recognition of peptide (ELISA) [3]: lack of recognition; also recorded: does not bind
